# Key:
# [1] = test system: T1, CC6, 5FAM-KYLGRSYKV-K(CPQ2)-C
# T1 sequence: KYLGRSYKVKC
# [2] = test system: T2, CC9, 5FAM-GLQRALEI-K(CPQ2)-k-C
# T2 sequence: GLQRALEIKKC
# KTTGGRIYGG = test system: T3, KTTGGRIYGG
# T3 sequence: KTTGGRIYGG
# QARGGSK = test system: T4, QARGGSK
# T4 sequence: QARGGSK
# Plasmin, sequence (P00747 20-580): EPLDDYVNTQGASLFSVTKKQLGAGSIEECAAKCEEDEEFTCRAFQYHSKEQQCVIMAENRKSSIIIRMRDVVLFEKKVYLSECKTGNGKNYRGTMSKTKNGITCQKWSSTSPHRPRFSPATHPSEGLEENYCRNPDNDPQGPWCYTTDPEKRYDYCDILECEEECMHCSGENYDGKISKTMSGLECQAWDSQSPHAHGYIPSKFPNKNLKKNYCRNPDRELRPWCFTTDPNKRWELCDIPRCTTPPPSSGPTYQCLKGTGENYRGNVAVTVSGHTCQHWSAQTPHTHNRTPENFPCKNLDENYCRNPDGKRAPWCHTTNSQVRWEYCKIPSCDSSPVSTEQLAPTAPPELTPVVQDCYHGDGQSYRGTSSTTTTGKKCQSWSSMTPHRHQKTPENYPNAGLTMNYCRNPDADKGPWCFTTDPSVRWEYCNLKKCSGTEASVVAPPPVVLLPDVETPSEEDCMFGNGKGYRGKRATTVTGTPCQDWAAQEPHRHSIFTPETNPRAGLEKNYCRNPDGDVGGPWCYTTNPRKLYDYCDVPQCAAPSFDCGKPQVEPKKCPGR
# Plasmin, sequence (P00747 581-810): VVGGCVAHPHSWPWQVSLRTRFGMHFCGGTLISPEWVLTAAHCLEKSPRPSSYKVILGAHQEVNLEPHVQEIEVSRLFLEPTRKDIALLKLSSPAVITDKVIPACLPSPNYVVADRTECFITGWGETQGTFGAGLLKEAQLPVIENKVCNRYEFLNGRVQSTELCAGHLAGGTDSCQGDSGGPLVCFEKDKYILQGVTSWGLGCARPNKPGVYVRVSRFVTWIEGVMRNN
Substance,relative cleavage velocity (L-gate) [1],relative cleavage velocity (state 1 probability) after the first U-gate [1] [%],relative cleavage velocity (state 0 probability) after the first U-gate [2] [%],relative cleavage velocity (state 0 probability) after the second U-gate (state 0 substrate in large molar excess) [2] [%],protease cleavage velocity (KTTGGRIYGG),protease cleavage velocity (QARGGSK)
Plasmin,"adding substrate-1 (KYLGRSYKV (SEQ ID NO:5)) to control b0 (e.g., plasmin) and target bi (e.g., thrombin) at a concentration such that the relative cleavage velocities (rcv) were matched",55,45,93,–,–
Thrombin,"adding substrate-1 (KYLGRSYKV (SEQ ID NO:5)) to control b0 (e.g., plasmin) and target bi (e.g., thrombin) at a concentration such that the relative cleavage velocities (rcv) were matched",–,–,–,thrombin cleaving two different peptide substrates (KTTGGRIYGG (SEQ ID NO:2) and QARGGSK (SEQ ID NO:3)),thrombin cleaving two different peptide substrates (KTTGGRIYGG (SEQ ID NO:2) and QARGGSK (SEQ ID NO:3))
